In IntAct's records for PubMed 10069336:

Columns and labels:
[1] = molecular target: ena_drome ena (UniProt Q8T4F7)
[2] = molecular target: abl_drome Abl (UniProt P00522)
UniProt P00522, sequence (P00522 whole entry): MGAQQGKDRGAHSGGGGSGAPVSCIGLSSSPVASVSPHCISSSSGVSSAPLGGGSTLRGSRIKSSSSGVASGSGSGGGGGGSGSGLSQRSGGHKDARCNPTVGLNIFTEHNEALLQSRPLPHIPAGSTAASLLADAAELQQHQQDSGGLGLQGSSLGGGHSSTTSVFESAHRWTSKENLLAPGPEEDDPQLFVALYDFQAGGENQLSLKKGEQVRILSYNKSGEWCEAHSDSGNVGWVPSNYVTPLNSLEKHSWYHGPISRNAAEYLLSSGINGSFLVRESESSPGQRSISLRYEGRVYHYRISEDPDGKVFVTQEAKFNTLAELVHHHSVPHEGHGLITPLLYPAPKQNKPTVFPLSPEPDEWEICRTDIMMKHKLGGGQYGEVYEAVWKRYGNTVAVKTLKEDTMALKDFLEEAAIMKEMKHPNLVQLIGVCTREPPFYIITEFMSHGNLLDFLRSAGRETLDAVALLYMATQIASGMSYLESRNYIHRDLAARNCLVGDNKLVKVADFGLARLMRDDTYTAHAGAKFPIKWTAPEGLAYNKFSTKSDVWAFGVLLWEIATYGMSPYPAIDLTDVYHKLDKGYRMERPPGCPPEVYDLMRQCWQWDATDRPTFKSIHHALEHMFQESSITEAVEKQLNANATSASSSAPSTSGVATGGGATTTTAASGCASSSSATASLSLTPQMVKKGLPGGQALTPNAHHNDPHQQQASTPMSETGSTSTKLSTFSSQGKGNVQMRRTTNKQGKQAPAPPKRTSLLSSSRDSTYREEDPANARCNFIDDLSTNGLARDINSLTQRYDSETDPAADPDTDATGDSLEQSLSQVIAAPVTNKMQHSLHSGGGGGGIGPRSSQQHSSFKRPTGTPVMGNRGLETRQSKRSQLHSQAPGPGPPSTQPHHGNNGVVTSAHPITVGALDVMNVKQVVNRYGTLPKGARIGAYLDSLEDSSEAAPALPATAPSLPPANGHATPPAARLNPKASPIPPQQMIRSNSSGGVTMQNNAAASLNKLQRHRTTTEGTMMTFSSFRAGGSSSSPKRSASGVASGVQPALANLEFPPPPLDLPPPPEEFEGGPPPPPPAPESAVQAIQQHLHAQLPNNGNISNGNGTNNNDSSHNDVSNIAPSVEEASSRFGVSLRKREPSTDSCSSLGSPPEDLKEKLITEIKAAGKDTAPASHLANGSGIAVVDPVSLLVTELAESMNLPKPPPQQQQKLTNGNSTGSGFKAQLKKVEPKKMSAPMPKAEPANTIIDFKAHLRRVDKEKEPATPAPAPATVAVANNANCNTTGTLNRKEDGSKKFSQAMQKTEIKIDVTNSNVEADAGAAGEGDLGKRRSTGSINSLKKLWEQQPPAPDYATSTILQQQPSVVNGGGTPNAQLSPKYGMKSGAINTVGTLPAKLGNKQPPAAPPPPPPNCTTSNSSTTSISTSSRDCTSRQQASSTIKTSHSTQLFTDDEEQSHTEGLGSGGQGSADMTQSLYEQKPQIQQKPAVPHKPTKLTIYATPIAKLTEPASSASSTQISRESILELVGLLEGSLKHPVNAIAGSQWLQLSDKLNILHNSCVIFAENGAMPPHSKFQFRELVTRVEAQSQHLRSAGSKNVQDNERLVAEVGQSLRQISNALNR

UniProt Q8T4F7, sequence (Q8T4F7 whole entry): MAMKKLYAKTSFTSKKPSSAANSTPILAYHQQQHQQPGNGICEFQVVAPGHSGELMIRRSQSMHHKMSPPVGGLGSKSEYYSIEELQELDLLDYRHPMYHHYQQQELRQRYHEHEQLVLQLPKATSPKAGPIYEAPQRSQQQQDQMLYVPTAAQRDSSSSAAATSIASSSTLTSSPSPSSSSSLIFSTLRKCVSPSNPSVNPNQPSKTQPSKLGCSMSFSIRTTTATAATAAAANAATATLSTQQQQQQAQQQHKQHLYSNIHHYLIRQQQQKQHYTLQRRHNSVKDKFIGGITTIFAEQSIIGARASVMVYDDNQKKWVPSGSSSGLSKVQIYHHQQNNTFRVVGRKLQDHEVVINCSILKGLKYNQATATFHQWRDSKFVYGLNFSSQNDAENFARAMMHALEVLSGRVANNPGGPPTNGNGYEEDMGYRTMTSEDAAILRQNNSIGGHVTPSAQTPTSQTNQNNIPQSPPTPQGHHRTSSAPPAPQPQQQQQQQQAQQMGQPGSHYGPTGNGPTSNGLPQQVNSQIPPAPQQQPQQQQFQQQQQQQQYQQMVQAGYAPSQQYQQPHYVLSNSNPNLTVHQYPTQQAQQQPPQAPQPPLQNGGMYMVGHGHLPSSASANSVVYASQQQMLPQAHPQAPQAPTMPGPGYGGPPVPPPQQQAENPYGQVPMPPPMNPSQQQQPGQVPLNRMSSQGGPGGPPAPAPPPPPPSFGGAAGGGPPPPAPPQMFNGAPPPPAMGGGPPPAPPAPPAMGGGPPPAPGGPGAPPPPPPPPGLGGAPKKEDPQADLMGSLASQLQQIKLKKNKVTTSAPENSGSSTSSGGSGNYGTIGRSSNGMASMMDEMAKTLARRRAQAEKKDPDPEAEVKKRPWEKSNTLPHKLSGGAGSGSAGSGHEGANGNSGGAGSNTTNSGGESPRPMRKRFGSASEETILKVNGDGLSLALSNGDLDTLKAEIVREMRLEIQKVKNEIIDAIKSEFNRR

What does the source list for “Tyrosine-protein phosphatase Lar (Drosophila melanogaster (Fruit fly)), P16621 C1670S”?
effect of a mutation on the interaction [1]: decreasing interaction; effect of a mutation on the interaction [2]: decreasing interaction
